Experimental data from patent CN104974246A (INST PASTEUR SHANGHAI CAS, dated 2015).

Experiments:
Experiment in all cases: cell-based or functional assay
[1] = target: HCV 2a亚型 PR79 毒株的 E2蛋白 (on virus) (hepatitis C virus subtype 2a, strain …)
[2] = target: HCV 1b亚型 PR79 毒株的 E2蛋白 (on virus) (hepatitis C virus subtype 1b, strain …)
[3] = target: HCV 1b亚型 PR52B6M 毒株的 E2蛋白 (on virus) (hepatitis C virus subtype 1b, strain …)
[4] = target: T1, HCV 2a亚型 JFH1 毒株的 E2蛋白 (on virus) (hepatitis C virus subtype 2a, strain …, UniProt Q99IB8 384-750)
T1 sequence: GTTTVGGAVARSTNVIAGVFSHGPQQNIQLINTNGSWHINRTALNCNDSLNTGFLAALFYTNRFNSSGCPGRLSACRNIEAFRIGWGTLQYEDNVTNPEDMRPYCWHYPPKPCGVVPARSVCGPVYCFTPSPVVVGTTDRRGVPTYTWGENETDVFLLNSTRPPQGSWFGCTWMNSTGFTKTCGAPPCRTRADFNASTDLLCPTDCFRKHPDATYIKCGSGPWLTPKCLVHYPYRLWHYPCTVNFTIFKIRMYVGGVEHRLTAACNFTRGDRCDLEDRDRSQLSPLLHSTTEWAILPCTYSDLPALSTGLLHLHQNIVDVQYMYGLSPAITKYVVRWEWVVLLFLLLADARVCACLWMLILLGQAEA

Measured: 对 HCV真病毒的抑制率 (真病毒中和试验)

B1: 全人单克隆抗体7F2 (antibody, V domains shown)
VH: QVQLQQWGAGLLKPSETLSLTCAVYGGSFSGYYWNWIRQPPGKGLEWIGEINPRGTANHNPSLKSRVTISVGTSRNQFSLKLRAVTAADTAVYYCARGIHDTLTGYLAFYFDYWGQGTPVTVSS
VL: DIQMTQSPSSLSASVGDTVTITCRASQNIDRHLNWYQQKAGKAPKVLIYAASGLQSGVSSRFSGSGSGTEFTLTINDLEPEDFATYYCQQYYDTLGYTFGQGTKVEIK
> 90%: all assays above
